B1: 単鎖抗体MMPK9E−1 (scFv, V domains shown)
VH: QIQLVQSGPELKKPGETVKISCKASGYTFTSYALHWVKQAPGKGLKWMGWKYTNTGEPTYGDDFKGRFAFSLETSASTAYLQINNLKNEDMATYFCARGGLSSYAMDYWGQGTSVTVSS
VL: DIVMSQSPSSLAVSAGEKVTMSCKSSQSLLNSRTRKNYLAWYQQKPGQSPKLLIYWASTRESGVPDRFTGTGSGTDFTLTISSVQAEDLAVYYCKQSYNLLVTFGAGTKLELKR
B2: MT1−MMPヒンジ領域ペプチド (peptide)
peptide: PQPRTTSRPSVPDKPKNC
notes: also called MT1−MMPペプチド; 抗原ペプチド
B3: 単鎖抗体MMPK9I−1 (scFv, V domains shown)
VH: QVQLQQSGAELVRPGASVTLSCKASGYRFTDYEMHWVRQTPVHGLEWIGAIDPETGGTAYNQKFKGKATLTEDKSSSTAYMELRSLTSEDSAVYYCTTMITTALDYWGQGTSVTVSS
VL: DVLMTQTPLSLPVSLGDQASISCRSSQSIVHSDGNTYLEWYLQKPGQSPKVLIYKVSNRFSGVPDRFSGSGSGTDFTLKITRVEAEDLGVYYCFQGSHVPYTFGGGTKLEIKR
B4: 単鎖抗体MMP98−1 (scFv, V domains shown)
VH: EVQLQQSGPELKKPGETVKISCKASGYPVTKYGMNWVKQAPGKGLKWMGWINTYTGEPTYTDDFKGRFAFSLETSANTAYLQINNLKDEDTATYFCANSHGKYVEWFTYWGQGTTVTVSS
VL: DIELTQSPTTMAASPGEKITITCSASSSISSNYLHWYQQKPGFSPKLLIYRTSNLASGVPARFSGSGSGTSYSLTIGTMEAEDVATYYCQQGSSIPLTFGAGTKLELKR

What was measured:
[1] = target: T1, MT1−MMPヒンジ領域ペプチドコンジュゲート (mouse, UniProt P02769 25-607 (bovine entry), C-terminal Cys coupled through the linker Sulfo-EMCS to the carrier protein); assay: SPR, peptide 3-BSA complex immobilised, scFv as analyte
T1 construct: peptide 3); also called ペプチド−BSA複合体; 固相化抗原

[2] = target: T2, 抗MT1−MMP抗体MMPK9I (ハイブリドーマ19Bが産生する抗体IgG); assay: flow immunoassay: free hinge peptide (0.0-100 ng/mL) inhibits binding of Cy5-F(ab')2-labelled IgG MMPK9I to conjugate-coated polystyrene beads
T2 construct: Mouse IgG from hybridoma 19B; Culture supernatant in the screening; in the flow immunoassay in complex with Cy5-labelled goat anti-mouse IgG F(ab')2; also called 抗体K9I

T1 sequence (P02769 25-607 limits assumed): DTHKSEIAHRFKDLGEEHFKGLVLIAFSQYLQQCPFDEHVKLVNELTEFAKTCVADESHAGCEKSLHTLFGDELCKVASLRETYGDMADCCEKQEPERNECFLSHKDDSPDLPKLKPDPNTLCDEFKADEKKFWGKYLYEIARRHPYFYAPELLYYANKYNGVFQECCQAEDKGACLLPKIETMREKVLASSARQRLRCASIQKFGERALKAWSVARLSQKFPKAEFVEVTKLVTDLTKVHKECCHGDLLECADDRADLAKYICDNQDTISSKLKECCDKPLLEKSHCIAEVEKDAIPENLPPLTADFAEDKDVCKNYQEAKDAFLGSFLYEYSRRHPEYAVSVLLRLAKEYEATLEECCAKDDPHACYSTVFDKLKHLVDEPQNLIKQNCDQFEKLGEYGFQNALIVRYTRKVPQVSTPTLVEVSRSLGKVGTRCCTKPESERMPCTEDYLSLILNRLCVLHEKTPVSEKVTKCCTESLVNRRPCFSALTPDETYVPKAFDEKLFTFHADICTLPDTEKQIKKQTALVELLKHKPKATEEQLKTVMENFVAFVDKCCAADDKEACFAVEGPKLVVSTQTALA

Row | Binder | Kd [1] [µM] | IC50 [2] [ng/mL]
1 | B1 | ~0.01 | –
2 | B2 | – | ~4.74
3 | B3 | ~0.01 | –
4 | B4 | ~0.01 | –

— JP2012115243A (dated 2012)
